According to PMC4143955:

Target: SCMV-BJ VPg-YFP^N (BiFC fusion, pUC-SPYNE) (Sugarcane mosaic virus, Beijing isolate (SCMV-BJ))
Assay: split reporter (BiFC, NanoBiT); BiFC: YFP^N and YFP^C fusions co-transfected into maize protoplasts; YFP fluorescence captured at 12-18 h post transfection by confocal microscopy

“YFP^C-ZmElc (BiFC fusion, pGD-YFP^C-ZmELC) (natural protein)” was tested, and the percentage of protoplasts exhibiting fluorescence signal was 64%.
